In IntAct's records for PubMed 35512704:

B1: Speckle-type POZ protein (Homo sapiens), O43791 (parent)
chain: MSRVPSPPPPAEMSSGPVAESWCYTQIKVVKFSYMWTINNFSFCREEMGEVIKSSTFSSGANDKLKWCLRVNPKGLDEESKDYLSLYLLLVSCPKSEVRAKFKFSILNAKGEETKAMESQRAYRFVQGKDWGFKKFIRRDFLLDEANGLLPDDKLTLFCEVSVVQDSVNISGQNTMNMVKVPECRLADELGGLWENSRFTDCCLCVAGQEFQAHKAILAARSPVFSAMFEHEMEESKKNRVEINDVEPEVFKEMMCFIYTGKAPNLDKMADDLLAAADKYALERLKVMCEDALCSNLSVENAAEILILADLHSADQLKTQAVDFINYHASDVLETSGWKSMVVSHPHLVAEAYRSLASAQCPFLGPPRKRLKQS

Variants of: B1
Conditions: with maga6_human MAGEA6, P43360

| Variant | effect of a mutation on the interaction |
| --- | --- |
| F133L | with no effect |

Variants of: B1
Conditions: with m3k1_human MAP3K1, Q13233
m3k1_human MAP3K1, Q13233, sequence (Q13233 whole entry): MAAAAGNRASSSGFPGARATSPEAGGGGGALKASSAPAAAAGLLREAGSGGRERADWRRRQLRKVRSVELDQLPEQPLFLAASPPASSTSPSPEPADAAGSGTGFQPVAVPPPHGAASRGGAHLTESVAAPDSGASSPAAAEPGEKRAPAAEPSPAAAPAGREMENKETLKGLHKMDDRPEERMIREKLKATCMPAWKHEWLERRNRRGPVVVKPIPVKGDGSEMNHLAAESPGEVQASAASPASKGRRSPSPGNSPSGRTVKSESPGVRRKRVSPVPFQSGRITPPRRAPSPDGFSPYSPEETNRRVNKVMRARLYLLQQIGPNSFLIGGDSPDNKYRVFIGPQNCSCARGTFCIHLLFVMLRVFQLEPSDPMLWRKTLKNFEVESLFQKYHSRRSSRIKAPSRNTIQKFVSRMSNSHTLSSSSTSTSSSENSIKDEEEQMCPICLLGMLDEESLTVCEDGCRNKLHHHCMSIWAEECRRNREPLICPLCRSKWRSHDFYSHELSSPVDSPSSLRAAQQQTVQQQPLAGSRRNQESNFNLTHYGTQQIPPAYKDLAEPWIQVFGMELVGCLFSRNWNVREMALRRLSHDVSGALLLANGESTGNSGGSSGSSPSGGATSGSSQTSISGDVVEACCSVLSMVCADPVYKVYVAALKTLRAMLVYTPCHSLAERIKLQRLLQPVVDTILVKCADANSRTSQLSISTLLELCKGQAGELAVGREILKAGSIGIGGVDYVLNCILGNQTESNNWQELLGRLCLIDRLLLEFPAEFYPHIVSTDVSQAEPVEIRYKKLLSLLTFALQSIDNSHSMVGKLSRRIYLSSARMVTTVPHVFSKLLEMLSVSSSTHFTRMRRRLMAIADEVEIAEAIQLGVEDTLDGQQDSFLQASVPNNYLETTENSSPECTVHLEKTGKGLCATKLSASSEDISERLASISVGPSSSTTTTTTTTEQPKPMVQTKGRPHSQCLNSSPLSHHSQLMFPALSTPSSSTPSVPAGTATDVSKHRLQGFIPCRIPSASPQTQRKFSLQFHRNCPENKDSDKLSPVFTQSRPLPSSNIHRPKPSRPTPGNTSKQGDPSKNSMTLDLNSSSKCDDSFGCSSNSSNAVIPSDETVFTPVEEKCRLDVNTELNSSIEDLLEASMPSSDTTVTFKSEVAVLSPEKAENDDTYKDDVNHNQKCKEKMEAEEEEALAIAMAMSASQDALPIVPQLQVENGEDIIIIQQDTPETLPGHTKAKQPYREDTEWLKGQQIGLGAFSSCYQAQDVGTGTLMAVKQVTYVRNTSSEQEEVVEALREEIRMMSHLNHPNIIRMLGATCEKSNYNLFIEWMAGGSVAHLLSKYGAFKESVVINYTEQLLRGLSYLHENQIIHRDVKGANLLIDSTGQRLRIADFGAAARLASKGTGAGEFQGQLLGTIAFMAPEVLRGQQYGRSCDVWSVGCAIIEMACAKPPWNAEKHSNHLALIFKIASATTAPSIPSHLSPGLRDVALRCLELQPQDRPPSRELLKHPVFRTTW

| Variant | effect of a mutation on the interaction |
| --- | --- |
| F133L | with no effect |

Variants of: B1
Conditions: with mk10_human MAPK10, P53779
mk10_human MAPK10, P53779, sequence (P53779 whole entry): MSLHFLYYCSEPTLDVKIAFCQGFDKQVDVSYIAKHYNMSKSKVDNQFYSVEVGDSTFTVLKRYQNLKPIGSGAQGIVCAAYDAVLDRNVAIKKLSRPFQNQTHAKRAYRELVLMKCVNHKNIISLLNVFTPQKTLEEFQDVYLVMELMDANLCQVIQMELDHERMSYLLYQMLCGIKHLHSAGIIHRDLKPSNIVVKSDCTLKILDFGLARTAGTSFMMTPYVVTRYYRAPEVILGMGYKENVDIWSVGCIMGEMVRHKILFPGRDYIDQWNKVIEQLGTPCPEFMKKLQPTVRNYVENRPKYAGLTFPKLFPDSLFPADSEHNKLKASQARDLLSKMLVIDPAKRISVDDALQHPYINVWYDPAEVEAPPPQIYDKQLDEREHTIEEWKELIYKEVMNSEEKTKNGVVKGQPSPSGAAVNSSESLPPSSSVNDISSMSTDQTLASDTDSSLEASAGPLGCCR

| Variant | effect of a mutation on the interaction |
| --- | --- |
| F133L | with no effect |

Variants of: B1
Conditions: with mk14_human MAPK14, Q16539

| Variant | effect of a mutation on the interaction |
| --- | --- |
| F133L | with no effect |

Variants of: B1
Conditions: with mk03_human MAPK3, P27361

| Variant | effect of a mutation on the interaction |
| --- | --- |
| F133L | with no effect |

Variants of: B1
Conditions: with mk04_human MAPK4, P31152

| Variant | effect of a mutation on the interaction |
| --- | --- |
| F133L | with no effect |

Variants of: B1
Conditions: with mk06_human MAPK6, Q16659

| Variant | effect of a mutation on the interaction |
| --- | --- |
| F133L | with no effect |

Variants of: B1
Conditions: with mk07_human MAPK7, Q13164

| Variant | effect of a mutation on the interaction |
| --- | --- |
| F133L | with no effect |

Variants of: B1
Conditions: with sin1_human MAPKAP1, Q9BPZ7

| Variant | effect of a mutation on the interaction |
| --- | --- |
| F133L | with no effect |

Variants of: B1
Conditions: with mcl1_human MCL1, Q07820
mcl1_human MCL1, Q07820, sequence (Q07820 whole entry): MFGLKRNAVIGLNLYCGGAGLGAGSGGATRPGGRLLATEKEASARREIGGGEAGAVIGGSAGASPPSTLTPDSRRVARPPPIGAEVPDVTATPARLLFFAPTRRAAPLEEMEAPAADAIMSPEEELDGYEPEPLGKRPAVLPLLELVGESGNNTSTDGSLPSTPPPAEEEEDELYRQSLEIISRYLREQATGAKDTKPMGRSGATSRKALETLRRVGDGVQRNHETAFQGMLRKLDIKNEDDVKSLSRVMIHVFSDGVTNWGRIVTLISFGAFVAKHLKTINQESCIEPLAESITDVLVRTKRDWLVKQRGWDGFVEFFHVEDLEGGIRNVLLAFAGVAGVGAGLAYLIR

| Variant | effect of a mutation on the interaction |
| --- | --- |
| F133L | with no effect |

Variants of: B1
Conditions: with mdm2_human MDM2, Q00987

| Variant | effect of a mutation on the interaction |
| --- | --- |
| F133L | with no effect |

Variants of: B1
Conditions: with mef2a_human MEF2A

| Variant | effect of a mutation on the interaction |
| --- | --- |
| F133L | with no effect |

Variants of: B1
Conditions: with mlh1_human MLH1, P40692
mlh1_human MLH1, P40692, sequence (P40692 whole entry): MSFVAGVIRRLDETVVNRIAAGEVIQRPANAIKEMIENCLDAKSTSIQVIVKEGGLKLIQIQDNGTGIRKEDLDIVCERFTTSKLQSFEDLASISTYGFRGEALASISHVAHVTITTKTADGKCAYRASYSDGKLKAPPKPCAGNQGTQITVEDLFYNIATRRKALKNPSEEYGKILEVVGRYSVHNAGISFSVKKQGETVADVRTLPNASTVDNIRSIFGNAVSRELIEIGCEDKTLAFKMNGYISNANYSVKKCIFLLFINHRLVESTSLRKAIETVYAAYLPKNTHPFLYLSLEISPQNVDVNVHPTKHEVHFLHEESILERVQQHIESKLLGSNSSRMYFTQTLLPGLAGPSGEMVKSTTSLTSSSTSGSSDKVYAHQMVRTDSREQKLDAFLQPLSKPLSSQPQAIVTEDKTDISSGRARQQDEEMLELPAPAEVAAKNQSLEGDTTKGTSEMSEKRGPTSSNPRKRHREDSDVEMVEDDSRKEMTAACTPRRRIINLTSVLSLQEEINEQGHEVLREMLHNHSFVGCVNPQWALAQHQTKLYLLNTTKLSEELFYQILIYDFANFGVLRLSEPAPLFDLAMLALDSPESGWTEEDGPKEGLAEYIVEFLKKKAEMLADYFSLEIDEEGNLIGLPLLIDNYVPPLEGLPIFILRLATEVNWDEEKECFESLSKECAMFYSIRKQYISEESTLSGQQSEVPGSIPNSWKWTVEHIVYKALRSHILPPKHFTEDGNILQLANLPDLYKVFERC

| Variant | effect of a mutation on the interaction |
| --- | --- |
| F133L | with no effect |

Variants of: B1
Conditions: with mtor_human MTOR

| Variant | effect of a mutation on the interaction |
| --- | --- |
| F133L | with no effect |

Variants of: B1
Conditions: with mybb_human MYBL2, P10244

| Variant | effect of a mutation on the interaction |
| --- | --- |
| F133L | with no effect |

Variants of: B1
Conditions: with myc_human MYC

| Variant | effect of a mutation on the interaction |
| --- | --- |
| F133L | with no effect |

Variants of: B1
Conditions: with mycn_human MYCN

| Variant | effect of a mutation on the interaction |
| --- | --- |
| F133L | with no effect |

Variants of: B1
Conditions: with ncoa3_human NCOA3, Q9Y6Q9
ncoa3_human NCOA3, Q9Y6Q9, sequence (Q9Y6Q9 whole entry, looked up): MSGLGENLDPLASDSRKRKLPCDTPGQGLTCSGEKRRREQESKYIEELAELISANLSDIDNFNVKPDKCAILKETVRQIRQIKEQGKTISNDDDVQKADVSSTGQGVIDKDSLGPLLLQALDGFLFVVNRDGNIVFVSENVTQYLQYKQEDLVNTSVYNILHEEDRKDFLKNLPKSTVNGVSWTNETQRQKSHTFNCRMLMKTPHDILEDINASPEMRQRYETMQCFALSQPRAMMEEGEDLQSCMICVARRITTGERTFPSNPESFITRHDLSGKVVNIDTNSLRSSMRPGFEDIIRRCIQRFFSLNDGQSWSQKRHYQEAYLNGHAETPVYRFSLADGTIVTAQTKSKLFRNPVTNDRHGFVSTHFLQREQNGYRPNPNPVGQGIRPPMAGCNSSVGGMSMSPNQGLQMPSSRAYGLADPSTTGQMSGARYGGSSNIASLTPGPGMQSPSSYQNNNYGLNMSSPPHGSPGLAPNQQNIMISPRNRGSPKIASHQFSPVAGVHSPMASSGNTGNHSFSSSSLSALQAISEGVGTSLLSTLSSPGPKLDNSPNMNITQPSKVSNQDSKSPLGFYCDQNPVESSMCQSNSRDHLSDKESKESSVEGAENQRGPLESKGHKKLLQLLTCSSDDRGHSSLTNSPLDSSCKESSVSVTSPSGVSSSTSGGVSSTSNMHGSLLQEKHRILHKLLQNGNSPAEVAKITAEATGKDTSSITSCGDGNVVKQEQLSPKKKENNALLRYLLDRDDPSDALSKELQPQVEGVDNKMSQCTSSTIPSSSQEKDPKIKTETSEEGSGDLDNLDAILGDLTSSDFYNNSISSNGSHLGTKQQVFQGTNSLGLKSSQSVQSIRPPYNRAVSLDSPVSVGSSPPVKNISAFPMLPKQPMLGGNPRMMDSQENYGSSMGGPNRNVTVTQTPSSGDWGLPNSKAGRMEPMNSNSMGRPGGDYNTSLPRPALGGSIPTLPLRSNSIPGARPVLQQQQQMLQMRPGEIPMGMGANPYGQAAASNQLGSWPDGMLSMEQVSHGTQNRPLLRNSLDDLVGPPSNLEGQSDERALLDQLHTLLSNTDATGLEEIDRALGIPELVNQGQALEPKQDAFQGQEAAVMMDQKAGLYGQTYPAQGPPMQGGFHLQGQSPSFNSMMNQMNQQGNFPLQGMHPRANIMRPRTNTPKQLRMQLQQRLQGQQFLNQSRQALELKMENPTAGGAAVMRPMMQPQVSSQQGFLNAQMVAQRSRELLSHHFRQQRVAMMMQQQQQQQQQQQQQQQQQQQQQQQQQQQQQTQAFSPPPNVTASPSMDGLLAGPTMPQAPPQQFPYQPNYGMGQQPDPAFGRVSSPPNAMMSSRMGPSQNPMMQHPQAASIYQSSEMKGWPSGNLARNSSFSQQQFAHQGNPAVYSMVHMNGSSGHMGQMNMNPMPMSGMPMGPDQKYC

| Variant | effect of a mutation on the interaction |
| --- | --- |
| F133L | with no effect |

Variants of: B1
Conditions: with ikba_human NFKBIA

| Variant | effect of a mutation on the interaction |
| --- | --- |
| F133L | with no effect |

Variants of: B1
Conditions: with notc2_human NOTCH2, Q04721

| Variant | effect of a mutation on the interaction |
| --- | --- |
| F133L | with no effect |

Variants of: B1
Conditions: with nox1_human NOX1, Q9Y5S8

| Variant | effect of a mutation on the interaction |
| --- | --- |
| F133L | with no effect |

Variants of: B1
Conditions: with ntrk2_human NTRK2, Q16620

| Variant | effect of a mutation on the interaction |
| --- | --- |
| F133L | with no effect |

Variants of: B1
Conditions: with ntrk3_human NTRK3, Q16288

| Variant | effect of a mutation on the interaction |
| --- | --- |
| F133L | with no effect |

Variants of: B1
Conditions: with pak3_human PAK3, O75914
pak3_human PAK3, O75914, sequence (O75914 whole entry, looked up): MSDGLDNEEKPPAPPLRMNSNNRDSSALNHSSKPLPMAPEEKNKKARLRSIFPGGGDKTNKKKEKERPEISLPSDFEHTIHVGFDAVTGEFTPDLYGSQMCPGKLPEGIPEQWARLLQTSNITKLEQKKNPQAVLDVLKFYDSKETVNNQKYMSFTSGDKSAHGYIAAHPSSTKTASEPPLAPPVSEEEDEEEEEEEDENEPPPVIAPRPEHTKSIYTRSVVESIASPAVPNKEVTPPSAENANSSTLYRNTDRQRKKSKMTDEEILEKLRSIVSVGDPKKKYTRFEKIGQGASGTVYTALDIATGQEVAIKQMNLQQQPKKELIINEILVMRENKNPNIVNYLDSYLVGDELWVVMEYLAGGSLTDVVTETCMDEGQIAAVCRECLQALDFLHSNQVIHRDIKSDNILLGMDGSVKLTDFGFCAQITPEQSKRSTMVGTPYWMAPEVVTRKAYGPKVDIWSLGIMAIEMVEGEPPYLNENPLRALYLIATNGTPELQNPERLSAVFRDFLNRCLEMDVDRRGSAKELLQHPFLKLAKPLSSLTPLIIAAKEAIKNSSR

| Variant | effect of a mutation on the interaction |
| --- | --- |
| F133L | with no effect |

Variants of: B1
Conditions: with prkn_human PRKN

| Variant | effect of a mutation on the interaction |
| --- | --- |
| F133L | with no effect |

Variants of: B1
Conditions: with pax5_human PAX5, Q02548

| Variant | effect of a mutation on the interaction |
| --- | --- |
| F133L | with no effect |

Variants of: B1
Conditions: with pcbp1_human PCBP1, Q15365

| Variant | effect of a mutation on the interaction |
| --- | --- |
| F133L | with no effect |

Variants of: B1
Conditions: with pdcd1_human PDCD1, Q15116

| Variant | effect of a mutation on the interaction |
| --- | --- |
| F133L | with no effect |

Variants of: B1
Conditions: with pgfrb_human PDGFRB

| Variant | effect of a mutation on the interaction |
| --- | --- |
| F133L | with no effect |

Variants of: B1
Conditions: with pdk1_human PDK1, Q15118

| Variant | effect of a mutation on the interaction |
| --- | --- |
| F133L | with no effect |

Variants of: B1
Conditions: with PIK3C2B

| Variant | effect of a mutation on the interaction |
| --- | --- |
| F133L | with no effect |

Variants of: B1
Conditions: with pk3ca_human PIK3CA

| Variant | effect of a mutation on the interaction |
| --- | --- |
| F133L | with no effect |

Variants of: B1
Conditions: with pk3cg_human PIK3CG

| Variant | effect of a mutation on the interaction |
| --- | --- |
| F133L | with no effect |

Variants of: B1
Conditions: with p85b_human PIK3R2, O00459

| Variant | effect of a mutation on the interaction |
| --- | --- |
| F133L | with no effect |

Variants of: B1
Conditions: with dpod1_human POLD1, P28340

| Variant | effect of a mutation on the interaction |
| --- | --- |
| F133L | with no effect |

Variants of: B1
Conditions: with dpoe1_human POLE

| Variant | effect of a mutation on the interaction |
| --- | --- |
| F133L | with no effect |

Variants of: B1
Conditions: with ppard_human PPARD

| Variant | effect of a mutation on the interaction |
| --- | --- |
| F133L | with no effect |

Variants of: B1
Conditions: with prdm1_human PRDM1, O75626

| Variant | effect of a mutation on the interaction |
| --- | --- |
| F133L | with no effect |

Variants of: B1
Conditions: with prex2_human PREX2, Q70Z35

| Variant | effect of a mutation on the interaction |
| --- | --- |
| F133L | with no effect |

Variants of: B1
Conditions: with aapk2_human PRKAA2, P54646

| Variant | effect of a mutation on the interaction |
| --- | --- |
| F133L | with no effect |

Variants of: B1
Conditions: with prss8_human PRSS8, Q16651

| Variant | effect of a mutation on the interaction |
| --- | --- |
| F133L | with no effect |

Variants of: B1
Conditions: with tf65_human RELA

| Variant | effect of a mutation on the interaction |
| --- | --- |
| F133L | with no effect |

Variants of: B1
Conditions: with rictr_human RICTOR

| Variant | effect of a mutation on the interaction |
| --- | --- |
| F133L | with no effect |

Variants of: B1
Conditions: with rnf43_human RNF43, Q68DV7

| Variant | effect of a mutation on the interaction |
| --- | --- |
| F133L | with no effect |

Variants of: B1
Conditions: with ros1_human ROS1, P08922

| Variant | effect of a mutation on the interaction |
| --- | --- |
| F133L | with no effect |

Variants of: B1
Conditions: with rl11_human RPL11, P62913

| Variant | effect of a mutation on the interaction |
| --- | --- |
| F133L | with no effect |
